Patent US20260242478A1 (published 2026)
Where no end group is shown, it is not given here.

B1: Phage-1169 (peptide)
peptide: YCEGHVAEYRAKCL
modifications: cysteine pairing not given here; also: displayed on phage by fusion to pIII, linker and pIII sequence not given here
notes: Clonal phage of the Peptide-87 library; not shown: fused to the pIII filament of the bacteriophage
B2: Phage-1170 (peptide)
peptide: YCQGHLPQYIEKCL
modifications: cysteine pairing not given here; also: displayed on phage by fusion to pIII, linker and pIII sequence not given here
notes: as for B1
B3: Phage-1171 (peptide)
peptide: YCEGHAAAYMGKCL
modifications: cysteine pairing not given here; also: displayed on phage by fusion to pIII, linker and pIII sequence not given here
notes: as for B1
B4: Phage-1172 (peptide)
peptide: YCDGHEQQYMEKCL
modifications: cysteine pairing not given here; also: displayed on phage by fusion to pIII, linker and pIII sequence not given here
notes: as for B1
B5: Phage-1173 (peptide)
peptide: YCDGHLQMYMMKCL
modifications: cysteine pairing not given here; also: displayed on phage by fusion to pIII, linker and pIII sequence not given here
notes: as for B1
B6: Phage-1174 (peptide)
peptide: YCEGHLYEYMWKCL
modifications: cysteine pairing not given here; also: displayed on phage by fusion to pIII, linker and pIII sequence not given here
notes: as for B1

Target: T1, Anti-CD28 Fab (SEQ ID NOs: 696, 697)
T1 construct: In the phage ELISA the Fab was biotinylated and captured on neutravidin coated plates
Assay: phage binding ELISA; biotinylated anti-CD28 Fab on neutravidin plate, clonal phage supernatant, anti-M13 HRP detection
T1 sequence (VH, as listed by the source, chain 1 of 2): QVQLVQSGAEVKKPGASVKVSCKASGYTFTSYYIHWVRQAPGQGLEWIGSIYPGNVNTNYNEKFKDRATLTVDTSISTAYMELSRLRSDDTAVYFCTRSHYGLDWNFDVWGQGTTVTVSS
T1 sequence (VL, as listed by the source, chain 2 of 2): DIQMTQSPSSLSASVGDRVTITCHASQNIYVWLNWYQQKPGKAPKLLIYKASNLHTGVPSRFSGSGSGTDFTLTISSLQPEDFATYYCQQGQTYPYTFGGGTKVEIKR

| Binder | Anti-CD28 Fab signal (phage binding ELISA) |
| --- | --- |
| YCEGHMPEYLAKCL [Phage-1156] | 1.18 |
| YCEGHAGVYMAKCL [Phage-1157] | 1.17 |
| YCEGHSQTYMWKCL [Phage-1158] | 1.17 |
| YCEGHSQQYMWKCL [Phage-1160] | 1.17 |
| YCAGHSSEYIGKCL [Phage-1159] | 1.17 |
| YCDGHLPDYMAKCL [Phage-1161] | 1.17 |
| YCEGHAEQYMEKCL [Phage-1162] | 1.17 |
| YCEGHLKEYMQKCL [Phage-1163] | 1.17 |
| YCEGHSYQYMQKCL [Phage-1164] | 1.16 |
| YCEGHRAEYMSKCL [Phage-1165] | 1.16 |
| YCDGHSWIYMVKCL [Phage-1166] | 1.16 |
| YCDGHLSVYMSKCL [Phage-1167] | 1.15 |
| YCEGHLPQYMSKCL [Phage-1168] | 1.15 |

Target: T2, Anti-CD28 Fab (SEQ ID NOs: 696, 697)
T2 construct: Biotinylated and captured on neutravidin coated plates in the phage ELISA
Assay: phage ELISA on captured anti-CD28 Fab, wells first incubated with CD28 antigen (competitor)
T2 sequence (VH, as listed by the source, chain 1 of 2): as the sequence (VH, as listed by the source, chain 1 of 2) above
T2 sequence (VL, as listed by the source, chain 2 of 2): as the sequence (VL, as listed by the source, chain 2 of 2) above
Experimental: (§1) After panning, phage infected bacteria were plated out and colonies picked into 96 well blocks. Clonal phage was then amplified and separated from bacterial cells via centrifugation.
(§2) Clonal phage were harvested as crude supematants and screened via standard ELISAs. […] Prior to the addition of clonal phage, wells were incubated with blocking buffer and CD28 antigen or blocking buffer alone. Without washing or aspirating, clonal phage supematants were then added to the wells and incubated for a short time. Wells were then washed followed by detection of bound phage using a horse radish conjugated anti-M13 antibody. Clonal phage of interest were then sent for sequence analysis.

| Binder | Anti-CD28 Fab signal in the presence of CD28 (phage binding ELISA) |
| --- | --- |
| YCEGHIGIYMSKCL [Phage-1143] | 0.07 |
| YCEGHSTEYIQKCL [Phage-1144] | 0.09 |
| YCDGHSMMYMQKCL [Phage-1145] | 0.06 |
| YCEGHSAEHMPKCL [Phage-1146] | 0.09 |
| YCVGHYPEYMEKCL [Phage-1147] | 0.07 |
| YCDGHEARYMQKCL [Phage-1148] | 0.07 |
| YCDGHSQEYMSKCL [Phage-1149] | 0.06 |
| YCHGHLPQYMSKCM [Phage-1150] | 0.06 |
| YCAGHLDIYLAKCL [Phage-1151] | 0.07 |
| YCAGHAPEYISKCL [Phage-1152] | 0.07 |
| YCDGHSWEYLGKCL [Phage-1153] | 0.05 |
| YCEGHAAEYLWKCL [Phage-1154] | 0.09 |
| YCDGHRPEYMSKCL [Phage-1155] | 0.07 |

Target: Anti-CD28 Fab (SEQ ID NOs: 696, 697)
Assay: phage binding ELISA on captured anti-CD28 Fab; competitor CD28 antigen pre-incubated in the wells
Target sequence in this assay (VH, as listed by the source, chain 1 of 2): as the sequence (VH, as listed by the source, chain 1 of 2) above
Target sequence in this assay (VL, as listed by the source, chain 2 of 2): as the sequence (VL, as listed by the source, chain 2 of 2) above
Experimental: as §1, §2

| Binder | Anti-CD28 Fab signal in the presence of CD28 |
| --- | --- |
| B1 | 0.09 |
| B2 | 0.06 |
| B3 | 0.08 |
| B4 | 0.06 |
| B5 | 0.07 |
| B6 | 0.07 |

Target: T2, Anti-CD28 Fab (SEQ ID NOs: 696, 697)
Assay: phage ELISA, clonal phage on biotinylated anti-CD28 Fab captured on neutravidin, anti-M13-HRP detection
Experimental: as §1, §2

| Binder | Anti-CD28 Fab signal (phage binding ELISA) |
| --- | --- |
| YCEGHIGIYMSKCL [Phage-1143] | 1.23 |
| YCEGHSTEYIQKCL [Phage-1144] | 1.23 |
| YCDGHSMMYMQKCL [Phage-1145] | 1.23 |
| YCEGHSAEHMPKCL [Phage-1146] | 1.23 |
| YCVGHYPEYMEKCL [Phage-1147] | 1.22 |
| YCDGHEARYMQKCL [Phage-1148] | 1.21 |
| YCDGHSQEYMSKCL [Phage-1149] | 1.21 |
| YCHGHLPQYMSKCM [Phage-1150] | 1.21 |
| YCAGHLDIYLAKCL [Phage-1151] | 1.21 |
| YCAGHAPEYISKCL [Phage-1152] | 1.21 |
| YCDGHSWEYLGKCL [Phage-1153] | 1.2 |
| YCEGHAAEYLWKCL [Phage-1154] | 1.18 |
| YCDGHRPEYMSKCL [Phage-1155] | 1.18 |

Target: T3, Anti-CD28 Fab (SEQ ID NOs: 696, 697)
T3 construct: Biotinylated and captured on neutravidin coated plates in the phage ELISA
Assay: phage ELISA, clonal phage on biotinylated anti-CD28 Fab captured on neutravidin plates;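 further: crude clonal phage supernatants added to wells pretreated with CD28 antigen or with blocking buffer only, bound phage detected by HRP-linked anti-M13 antibody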
T3 sequence (VH, as listed by the source, chain 1 of 2): as the sequence (VH, as listed by the source, chain 1 of 2) above
T3 sequence (VL, as listed by the source, chain 2 of 2): as the sequence (VL, as listed by the source, chain 2 of 2) above
Experimental: as §1, §2

| Binder | Anti-CD28 Fab signal (phage binding ELISA) |
| --- | --- |
| YCEGHLPMYMTKCL [Phage-1136] | 1.25 |
| YCDGHSEQYMAKCL [Phage-1137] | 1.24 |
| YCEGHTQEYMQKCL [Phage-1138] | 1.24 |
| YCAGHTAEYMAKCL [Phage-1139] | 1.24 |
| YCEGHLAEYMNKCL [Phage-1140] | 1.24 |
| YCDGHVEEYMTKCL [Phage-1141] | 1.24 |
| YCDGHLEQYMLKCL [Phage-1142] | 1.24 |

Target: T3, Anti-CD28 Fab (SEQ ID NOs: 696, 697)
Assay: phage ELISA on captured anti-CD28 Fab, wells pre-incubated with CD28 antigen as competitor;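 further: crude clonal phage supernatants added without washing, bound phage read out by HRP-coupled anti-M13 antibody, reference wells given blocking buffer only instead of CD28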

| Binder | Anti-CD28 Fab signal in the presence of CD28 (phage binding ELISA) |
| --- | --- |
| YCEGHLPMYMTKCL [Phage-1136] | 0.06 |
| YCDGHSEQYMAKCL [Phage-1137] | 0.06 |
| YCEGHTQEYMQKCL [Phage-1138] | 0.07 |
| YCAGHTAEYMAKCL [Phage-1139] | 0.08 |
| YCEGHLAEYMNKCL [Phage-1140] | 0.07 |
| YCDGHVEEYMTKCL [Phage-1141] | 0.07 |
| YCDGHLEQYMLKCL [Phage-1142] | 0.09 |

Target: Anti-CD28 Fab (SEQ ID NOs: 696, 697)
Assay: phage binding ELISA; biotinylated anti-CD28 Fab on neutravidin plate, clonal phage supernatant, anti-M13 HRP;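 further: crude clonal phage supernatants screened after wells were preincubated either with CD28 antigen in blocking buffer or with blocking buffer only, phage added without washing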
Target sequence in this assay (VH, as listed by the source, chain 1 of 2): as the sequence (VH, as listed by the source, chain 1 of 2) above
Target sequence in this assay (VL, as listed by the source, chain 2 of 2): as the sequence (VL, as listed by the source, chain 2 of 2) above
Experimental: as §1, §2

| Binder | Anti-CD28 Fab (SEQ ID NOs: 696, 697) signal |
| --- | --- |
| B1 | 1.15 |
| B2 | 1.14 |
| B3 | 1.14 |
| B4 | 1.14 |
| B5 | 1.14 |
| B6 | 1.13 |

Target: T1, Anti-CD28 Fab (SEQ ID NOs: 696, 697)
Assay: phage binding ELISA with the Fab-coated wells pre-incubated with CD28 antigen (competitor: CD28), anti-M13 HRP detection
Experimental: as §1, §2

| Binder | Anti-CD28 Fab signal in the presence of CD28 (phage binding ELISA) |
| --- | --- |
| YCEGHMPEYLAKCL [Phage-1156] | 0.07 |
| YCEGHAGVYMAKCL [Phage-1157] | 0.05 |
| YCEGHSQTYMWKCL [Phage-1158] | 0.08 |
| YCEGHSQQYMWKCL [Phage-1160] | 0.05 |
| YCAGHSSEYIGKCL [Phage-1159] | 0.06 |
| YCDGHLPDYMAKCL [Phage-1161] | 0.07 |
| YCEGHAEQYMEKCL [Phage-1162] | 0.08 |
| YCEGHLKEYMQKCL [Phage-1163] | 0.07 |
| YCEGHSYQYMQKCL [Phage-1164] | 0.06 |
| YCEGHRAEYMSKCL [Phage-1165] | 0.09 |
| YCDGHSWIYMVKCL [Phage-1166] | 0.06 |
| YCDGHLSVYMSKCL [Phage-1167] | 0.07 |
| YCEGHLPQYMSKCL [Phage-1168] | 0.09 |
